Results: patent publication US20260265316A1, “IMMUNOTHERAPEUTIC METHODS, COMPOUNDS, AND COMPOSITIONS FOR TREATING OR PREVENTING CELIAC DISEASE” (DBV Technologies, priority 2023, published 2026)

What was measured:
[1] = system: circulating gluten-specific CD4+ T cells in whole blood of HLA-DQ2+ CeD patients; test: Whole blood IL-2 cytokine release assay, HLA-DQ2+ CeD participants; assay type: cell-based, human; details: 24 hours; for IL-2 response (in words): HLA-DQ2+ donors, whole blood; for mean IL-2 titer: HLA-DQ2+ participants, 10 μM
Source text: FIGS. 10A-10B are graphs depicting the evaluation of the ability of various molarities of three gliadin polypeptides (Cv6, Av6, and 4K), two peptide mixes containing either the four individual building blocks BB1, BB2a, BB3a and BB4a (BB1-4a) or two Nexvax2 peptides (Nex01/02), and six individual building blocks or peptides (BB1, BB2a, BB3a, BB4a, Nex01, and Nex02) to restimulate gluten-specific T cell collected from HLA-DQ2+ CeD patients using a whole blood IL-2 release assay. The whole blood cytokine release assay was performed in six HLA-DQ2+ participants with biopsy-confirmed celiac disease. Whole blood was stimulated with the three gliadin polypeptide constructs Cv6, Av6, and 4K at 10, 2.5, and 0.5 μM final molarities, as indicated. Alternatively, whole blood was stimulated with a mix of peptides containing either the four building blocks BB1, BB2a, BB3a, and BB4a (BB1-4a) or Nex01 and Nex 02 (Nex01/02) at 10, 2.5, and 0.5 μM final molarities. Building blocks (BB1, BB2a, BB3a, and BB4a), Nex01, and Nex02 were also tested as individual peptides, at a single concentration of 10 μM. After 24 hours of incubation, the concentration of IL-2 was quantified from plasma using an MSD IL-2 S-plex ELISA. Data are expressed in femtogram/mL of plasma (A), or as fold change from the negative control (PBS 1×) (B). Symbols represent individual participants (patient ID); bars represent median+interquartile range of individual values.
(§1) The overarching objective of this assay was to validate that the polypeptide constructs (Cv6, Av6, and 4K) can be recognized and processed by human APCs, and they can then promote the activation of gluten-specific effector/memory CD4^+ T cells in CeD patients. A Cytokine Release Assay (CRA) was used (previously described in the literature: Anderson et al., Clinical & Experimental Immunology, 2021 June; 204(3): 321-334; and in Hardy et al., Frontiers in Immunology, 2021, Vol. 12, Article 661662, the entire contents of each of which are incorporated by reference herein). This assay quantifies IL-2 produced by circulating gluten-specific CD4^+ T cells present in the blood of CeD patients upon in vitro stimulation with gluten-derived antigens. Due to the extremely high sensitivity of this CRA, no oral exposure to gluten was required prior to blood sampling.
(§2) Informed consent was obtained from all subjects prior to blood collection.
(§3) Unfractionated blood (225 μL per well of a 96-well plate) was then rapidly restimulated for 24 hours with each of three of the polypeptide constructs provided herein (SEQ ID NO:23 wherein X is C [Cv6, i.e., SEQ ID NO:49], SEQ ID NO:23 wherein X is A [Av6, i.e., SEQ ID NO:50], and SEQ ID NO:46 [4K]) and with each of four individual building blocks (SEQ ID NO:15 wherein Z is E [BB1], SEQ ID NO:16 wherein Z is E [BB2a], SEQ ID NO:20 wherein Z is E [BB3a], and SEQ ID NO:18 wherein Z is E [BB4a]). The concentrations of the polypeptide constructs ranged from 0.5 to 10 micromolar, and the concentration for each individual building block was 10 micromolar. […] These two peptides comprise an N-terminal pyroglutamate and a C-terminal amide. Nex01 and Nex02 were the two gliadin peptides used in the Nexvax2 immunotherapeutic vaccine that was intended to restore immune tolerance to gluten in HLA-DQ2.5+ CeD patients. A positive control consisted of blood cells stimulated with phytohemagglutinin (PHA) (10 μg/mL) which activates all T cells regardless of their antigen specificity (i.e., a polyclonal activator). Negative controls consisted of cells treated with buffer only (PBS 1×).
(§4) After incubation for 24 hours at 37° C. and 5% CO2, plasma was separated from whole blood by centrifugation. Plasma was collected from each well and replicates (n=6 replicates per test) pooled. All plasma samples were frozen at −80° C. until analysis. Single plasma aliquots (100 μL) were thawed and analyzed in duplicate using MSD IL-2 S-plex according to the manufacturer's instructions.

[2] = system: circulating gluten-specific CD4+ T cells in whole blood of HLA-DQ8+ CeD patients; test: Whole blood IL-2 cytokine release assay, HLA-DQ8+ CeD participants; assay type: cell-based, human; details: for IL-2 response (in words): HLA-DQ8+ donors, whole blood; for IL-2 response (in words) / mean IL-2 titer: 24 hours; for mean IL-2 titer fold higher than Nex01/02 peptide mix / mean IL-2 titer: HLA-DQ8+ participants, 10 μM
Source text: FIGS. 11A-11B are graphs depicting the evaluation of the ability of various molarities of three gliadin polypeptides (Cv6, Av6, and 4K), two peptide mixes containing either the four individual building blocks BB1, BB2a, BB3a and BB4a (BB1-4a) or two Nexvax2 peptides (Nex01/02), and six individual building blocks or peptides (BB1, BB2a, BB3a, BB4a, Nex01, and Nex02) to restimulate gluten-specific T cell collected from HLA-DQ8+ CeD patients using a whole blood IL-2 release assay. The whole blood cytokine release assay was performed in four HLA-DQ8+ participants with biopsy-confirmed celiac disease as described in FIG. 10. Data are expressed in femtogram/mL of plasma (A), or as fold change from the negative control (PBS 1×) (B). Symbols represent individual participants (patient ID); bars represent the median+interquartile range of individual values.
as §1, §2, §3, §4

Molecule | IL-2 response (in words) [1] | IL-2 response (in words) [2] | mean IL-2 titer [1] | mean IL-2 titer fold higher than Nex01/02 peptide mix [2] | mean IL-2 titer [2]
H-PQPEQPEQPFPEQPQ-NH2 [BB2a] | no or low response | potent IL-2 responses | – | – | –
H-PSGEGSFQPSQENPQ-NH2 [BB4a] | no or low response | potent IL-2 responses | – | – | –
QLQPFPQPELPYPQPELPYPQPELPYPQPQPGPRRKKPQPEQPEQPFPEQPQGARRKKPQQPFPQPEQPFPWQPQGPKKPSGEGSFQPSQENPQ (peptide) QLQPFPQPELPYPQPELPYPQPELPYPQPQPGPRRKKPQPEQPEQPFPEQPQGARRKKPQQPFPQPEQPFPWQPQGPKKPSGEGSFQPSQENPQ | – | – | 6664 fg/mL | 9 fold | 3695 fg/mL
QLQPFPQPELPYPQPELPYPQPELPYPQPQPGPRRKKPQPEQPEQPFPEQPQGCRRKKPQQPFPQPEQPFPWQPQGPKKPSGEGSFQPSQENPQ (peptide) QLQPFPQPELPYPQPELPYPQPELPYPQPQPGPRRKKPQPEQPEQPFPEQPQGCRRKKPQQPFPQPEQPFPWQPQGPKKPSGEGSFQPSQENPQ | – | – | 4858 fg/mL | 11 fold | 4528 fg/mL
QLQPFPQPELPYPQPELPYPQPELPYPQPQPKKKKPQPEQPEQPFPEQPQKKKKPQQPFPQPEQPFPWQPQKKKKPSGEGSFQPSQENPQ (peptide) QLQPFPQPELPYPQPELPYPQPELPYPQPQPKKKKPQPEQPEQPFPEQPQKKKKPQQPFPQPEQPFPWQPQKKKKPSGEGSFQPSQENPQ | – | – | 7199 fg/mL | 15 fold | 6300 fg/mL
